Data set [1] addresses T1, hPLD3 luminal domain (Homo sapiens, UniProt Q8IV08 61-490).
T1 sequence: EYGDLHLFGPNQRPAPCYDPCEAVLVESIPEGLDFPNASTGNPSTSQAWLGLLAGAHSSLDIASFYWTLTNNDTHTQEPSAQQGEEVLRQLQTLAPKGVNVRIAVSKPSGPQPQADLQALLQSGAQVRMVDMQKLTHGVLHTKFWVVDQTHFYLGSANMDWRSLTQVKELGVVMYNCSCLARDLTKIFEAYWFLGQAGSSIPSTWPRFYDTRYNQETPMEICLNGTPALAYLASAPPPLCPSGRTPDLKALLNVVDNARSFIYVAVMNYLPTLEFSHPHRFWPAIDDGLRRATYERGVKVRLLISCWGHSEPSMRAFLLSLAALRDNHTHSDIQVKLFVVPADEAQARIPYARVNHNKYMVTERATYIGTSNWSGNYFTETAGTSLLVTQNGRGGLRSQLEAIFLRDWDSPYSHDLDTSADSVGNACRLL
Nature of the data set: ITC; N = 0.9; dH 30 kcal/mol; ITC: 20 mM HEPES pH 7.5, 150 mM NaCl, 10 C; 380 uM ssDNA in syringe, 10 uM hPLD3 in cell. Crystals: 15% PEG 4000, 0.02 M NaI, 0.9 M ammonium sulfate, 15% glycerol. The conditions noted are these: protein: recombinant; tags: C-terminal 6xHis; chain copies: 2; single strand. For orientation: In ITC the heat of successive injections is recorded.

Data set [2] concerns the target T1, hPLD3 luminal domain. Nature of the data set: ITC; ITC: 20 mM HEPES pH 7.5, 150 mM NaCl, 10 C; 380 uM ssDNA in syringe, 10 uM hPLD3 in cell. Crystals: 15% PEG 4000, 0.02 M NaI, 0.9 M ammonium sulfate, 15% glycerol. Particulars: protein: recombinant; tags: C-terminal 6xHis; chain copies: 2; single strand.
Data set [3] deals with the molecule itself. Put plainly: AUC; sedimentation velocity, 40000 rpm, 20°C, 8 or 16 μM hPLD3, absorbance at 280 or 290 nm.
Data set [4] concerns the molecule itself. Nature of the data set: SEC; HiLoad 16/600 Superdex 200 pg column, HEPES buffer pH 7.5, calibrated with LMW and HMW protein standards. For orientation: Size exclusion chromatography separates by hydrodynamic size, large species first.
Data set [5] has as its target T1, hPLD3 luminal domain. Put plainly: ITC; N = 1.0; dH -12 kcal/mol; no phosphorothioate, cleavable substrate; ITC: 20 mM HEPES pH 7.5, 150 mM NaCl, 10 C; 380 uM ssDNA in syringe, 10 uM hPLD3 in cell. Crystals: 15% PEG 4000, 0.02 M NaI, 0.9 M ammonium sulfate, 15% glycerol. Particulars: protein: recombinant; tags: C-terminal 6xHis; chain copies: 2; single strand.

The Kd is the equilibrium constant for the complex coming apart. A word on the stoichiometry N: it is a count of units in the complex or per binding partner.

B1: T*TCATG (ssDNA)
DNA: TTCATG
modifications: phosphorothioate between nt 1 and 2 (mixed Rp/Sp)
On to B1, for which the Kd in data set [1] was 28 ± 4 µM.

B2: T*T*C*A*T*G* (ssDNA)
DNA: TTCATG
modifications: phosphorothioate at all linkages (mixed Rp/Sp); printed with * also after the last G
Take B2: the binding result in data set [2] is reported as “no binding”.

B3: luminal domain (residues 61–490) of human PLD3 (domain or fragment, UniProt Q8IV08 61-490, looked up)
chain: T1 sequence
modifications: N-glycosylated (Man5GlcNAc2, high-mannose type) at Asn97, Asn132, Asn236, Asn284 and Asn387, at least partially; Cys300 oxidized to cysteine sulfonic acid (OCS)
notes: human PLD3 (phospholipase D3), luminal domain, residues 61-490, starting directly after the transmembrane segment; In the crystals residues 72–98 and 101–490 are seen, 61–71 and 99–100 are not visible; also called hPLD3; hPLD3_(61-490); source: HEK293S GnTI- stably transfected monoclonal cell line, secreted into culture supernatant, purified (NiNTA, SEC)
Turning to B3, the “stoichiometry N” value in data set [3] amounted to 4; in data set [4], 2.

B4: TTCATG (ssDNA)
DNA: TTCATG
Regarding B4, the equilibrium dissociation constant (Kd) in data set [5] was 20 ± 2 µM.

The values are drawn from paper PMC10783504, “Structural analysis of PLD3 reveals insights into the mechanism of lysosomal 5′ exonuclease-mediated nucleic acid degradation” (Nucleic Acids Research, 2023).
